B1: Nanobody Nb77 (VHH)
VHH: QVQLVESGGGLVQPGGSLRLSCAASRSISSINIMGWYRQAPGKERESVASHTRDGSTDYADSVKGRFTISRDNAKNTVYLQMNSLKPEDTAVYYCTTLTGFPRIRSWGQGTQVTVSS

Columns and labels:
[1] = molecular target: human KRAS^G12V (residues 1-169) (human) (UniProt P01116); experiment: stopped-flow fluorescence kinetics
[2] = molecular target: human SOS1 (residues 564-1049), SOS1^cat (Homo sapiens, UniProt Q07889, labelled with Alexa488 for flow cytometry (SOS1-488)); experiment: BLI

| Molecule | fold decrease of KD1 with Nb22 against SOS1 alone [1] [fold] | fold increase of k1 (kon) with excess Nb22 against SOS1 alone [1] [fold] | kon [1] [M⁻¹ s⁻¹] | ratio of k-1 (koff) with Nb14 to SOS1 alone [1] [fold] | Kd [2] [nM] |
| --- | --- | --- | --- | --- | --- |
| human SOS1 (residues 564-1049), SOS1^cat (from UniProt Q07889 564-1049) (domain or fragment) | 3.1 | 4 | 4.2e+06 | 0.3 |  |
| B1 |  |  |  |  | 70 ± 10 |
